Reference: article PMC5077683
Where no end group is shown, it is not given here. The star is where a group is joined. Prodan = Prodan fluorogenic core conjugated to Cys (C*)

Key:
[1] = target: glutathione S-transferase (GST); assay: other fluorescence titration
[2] = target: glutathione S-transferase (GST); assay: ITC

NTVSC(Prodan)HGF [Prodan-evolver NTVSC*HGF (1)]
Kd [1]: 5.2 µM | Kd [2]: 2.4 µM
